Results on 23 sequences are retold here after a protein production outcome set (Wang et al. 2014).
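Further: failed if final PepcDB status was selected cloned or expressed and not failed if soluble or beyond.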

The data set can be described thus: label from the status in PepcDB records.
As for “MMRCLTITIMFFMFFFLSVIQKCKSETSKSGDYIIYMGAASSDGSTDNDHVELLSSLLQRSGKTPMHRYKHGFSGFAAHLSEDEAHLIAKQPGVLSVFPDQMLQLHTTRSWDFLVQESYQRDTYFTEMNYEQESEMHEGDTIIGFLDSGIWPEAQSFNDRHMGPVPEKWKGTCMRGKKTQPDSFRCNRKLIGARYYNSSFFLDPDYETPRDFLGHGTHVASIAAGQIIANASYYGLASGIMRGGSPSSRIAMYRACSLLGCRGSSILAAFDDAIADGVDVISISMGLWPDNLLEDPLSIGSFHAVERGITVVCSVGNSGPSSQSVFNAAPWMITVAASTIDRGFESNILLGGDENRLIEGFGINIANIDKTQAYPLIHARSAKKIDANEEAARNCAPDTLDQTIVKGKIVVCDSDLDNQVIQWKSDEVKRLGGIGMVLVDDESMDLSFIDPSFLVTIIKPEDGIQIMSYINSTREPIATIMPTRSRTGHMLAPSIPSFSSRGPYLLTRSILKPDIAAPGVNILASWLVGDRNAAPEGKPPPLFNIESGTSMSCPHVSGIAARLKSRYPSWSPAAIRSAIMTTAVQMTNTGSHITTETGEKATPYDFGAGQVTIFGPSSPGLIYETNHMDYLNFLGYYGFTSDQIKKISNRIPQGFACPEQSNRGDISNINYPSISISNFNGKESRRVSRTVTNVASRLIGDEDTVYTVSIDAPEGLLVRVIPRRLHFRKIGDKLSYQVIFSSTTTILKDDAFGSITWSNGMYNVRSPFVVTSKDDNDSER”, the protein production entry is “failed”.
As for “MLNQFPKLRLTPFTTGIVAIFLFSLVIRFWNLGQFNQLVFDEVYYAKFASDYWLGNDFFPSHPPLSHYLIALAMGLGQVFPVNPEQVNDLTGAVRSTWSYRWLNALTGATIPLLLGAIAYLLTQRRLVTLLTMGLVALDGLFLVESRYALNNIYLVFFGLLGQALVLWHLRQEKLWQLILGGISLACAGSVKWNGFAFLLGVYLLWAIAWVKPFFNQGWTKGERQANSLQLLDRDGENNQGFLSRWLIISPLKFAIWLVLVPVITYSVIWIPHLLMNGEYASLEGFWRIQRETWQYHRRVGNSPDIHPYCSPWYSWLLMARPIAYFYQKSGQFGLINDVHAMANPILLWFSTGAMALLTGTVIWQKIRQFSSQTINAPLRGITLYIEVNYAVNLLPWLGISRCTFFYHYLPAYAFSILALALILETLLDSPRHSHNVIAWAVLTLVAIAFWYWLPVFLGLPLTPRGFALRMLFPSWI”, the protein production entry is reported as “failed”.
To “MVVADGHDLQESPLRWIPFLAVFLYVYIEISIFIQVAHVLGVLMTLILVIFTSVIGMSLVRNQGFKNFLLMQQKMAAGESPAAEMIKSVSLIIAGLLLLLPGFFTDFLGLLLLLPPVQKHLTLKLLPHLRFSRMPGGGFSAGTGGGETFDGEYQRKDDDRDRIEHKDDRRD” belongs “failed”.
Consider “MTLWSVASVLTLAFIFWLNAVMTASPYIVYLSGLKKQSERKNRLVALLLLLASLLYFFLKVGSFAAEGFAGMIDTTYMQFIWTGPVGLFIQLQIAVAIAWIVYSVVKLKRIKWVLYVVAIGLMGWSFLSIGHGSDAVWWGKLALLTHLLVAWVWFGSLNSLRKLATSVPLAKAKAIMERFGVHMSAAVPILLIAGLVMYRSATGRWMPELPLTSYDTVLLAKLVFVALILLVAALHKLKFVPQLNDNAAAKRLKNSITAEMVLAVTIFILASALSSAFSPG”, for which the protein production result is “failed”.
On to “MTQSQTNDGAGAGAVTTVESVPPQPQSQPQPQPQQQSNEMVLHTGSLSFSSHMSREDEEMTRSALSAFRAKEDEIEKRRMEVRERIQAQLGRVEQETKRLSTIREELESMADPRIWPSELESMADPMRKEVSVVRKKIDSVNKELKPLGSTVQKKAEQNSIFGNEMKQEREYKEALDTFNEKNREKVQLITKLMEMEQLVGESEKLRMIKLEELSKSIETV”, for which the protein production entry was “not failed”.
To “MNQLIFDFAAHDYPSFDKFLGTENAELVYVLRHKHGQFIYVWGEEGAGKSHLLQAWVAQALEAGKNAAYIDAASMPLTDAAFEAEYLAVDQVEKLGNEEQALLFSIFNRFRNSGKGFLLLGSEYTPQQLVIREDLRTRMAYCLVYEVKP” belongs “failed”.
As for “MGHHHHHHSHMPLVKRNIDPRHLCHTALPRGIKNELECVTNISLANIIRQLSSLSKYAEDIFGELFNEAHSFSFRVNSLQERVDRLSVSVTQLDPKEEELSLQDITMRKAFRSSTIQDQQLFDRKTLPIPLQETYDVCEQPPPLNILT”, the entry is “not failed”.
To “MSMSTSTEVIAHHWAFAIFLIVAIGLCCLMLVGGWFLGGRARARSKNVPFESGIDSVGSARLRLSAKFYLVAMFFVIFDVEALYLFAWSTSIRESGWVGFVEAAIFIFVLLAGLVYLVRIGALDWTPARSRRERMNPETNSIANRQR” belongs “failed”; to “DGAVQYYDGAVTEITEQKRQEQQLRQSRERWRRLVEKLQDGLHIAVDGDIRYINPAGAEILGADAPDDVIGHSLWDFVALEQAQQEIFEDRLRKIYRERTSTAPQEMEITGLNGERRVIESYTVPIKFDGEQAGQTVFRDITEQKEMEQALREREARLRSITENVS”, “failed”; to “MIIDTPLADRYPHAMKNQDESGDGWESLCERCGLCCFEKIEDENGTVFFTATPCRYLDVTTRQCVIYDKRFDINPECVKLTEELVRTLPWLHDDCAYRKALGVRLSKVRMNGRNKGKRG”, “failed”.
For “MTRADCRSRLMEVATELFAQKGFYGVSIRELAQAAGASISMISYHFGGKEGLYAAVLQEQFACFGQLDDIRGQAGDPLAVMTAYLRWTIQRHRNNPQLLRFYTSELTNPTPCFAAIVSPAIASVIRLLAESIEAGMTRGLFRRDLHAVNSALALAGMVNYFFLSTLATEGLTSHSPDQDEELIRQYVAIFTRGIMADGGAAPA”, the protein production result was “not failed”.
Consider “MGHHHHHHSHMARPLVPSSQKALLLELKGLQEEPVEGFRVTLVDEGDLYNWEVAIFGPPNTYYEGGYFKARLKFPIDYPYSPPAFRFLTKMWHPNIYETGDVCISILHPPVDDPQSGELPSERWNPTQNVRTILLSVISLLNEPNTFSPANVDASVMYRKWKESKGKDREYTDIIRKQVLGTKVDAERDGVKVPTTLAEYCVKTKAPAPDEGSDLFYDDYYEDGEVEEEADSCFGDDEDDSGTEES”, for which the protein production result is reported as “failed”.
For the sequence “MALKELTAKEFESYSGNYDLQSFMQTPEMAKLLKKRGYDITYMGYQIDGKMEIISIVYTIPMTGGLHMEVNSGPAHSNSKYLKHFYKELQNYAKSQGALELLIKPYDTYQEFTGEGKPKGAPNTYLIDDLTSIGYHHDGLHIGYPGGEPDWHYVKNLEGITPQNLLKSFSKKGRPLVKKAMSFGIKIRVLKREELHIFKDITSSTSDRRDYMDKSLDYYQDFYDSFGDKAEFVIATLNFREYDHNLQLNAKKLEEQITVLDNRHQNNTDSAKYHRQRTELVNQLASLDKRRKEVEPFIQKFGNQDVVLAGSLFIYSPKETVYLFSGSYTEFNKFYAPAVLQEYVMQEALKRQSTFYNFLGIQGNFDGSDGVLRFKQNFNGYIVRKMGTFRYYPNPLKYKSIQLLKKILRRT”, the protein production result was “failed”.
As for “MTAFRCLITGLTWLAKPGIRRYVWIPLAVNLVLYGLGLWLGIRYFSAFLNWMLPGWLDFLRWLLWPVFAVGFFTVMYFTFSVLANIIGSPFYGVLAERTAELATGRRIRPAGVAGEVGMWSALRSEFRRLAYLGLRIVPLAALFLVPVVNLVAPVLWMLFNAWFMALEYTAYPLEARGYDFDHQRSLLGRFRLGAATFGGTVLLAQTIPLLNVLAAPAAVIGATLYLLELPVEE”, the protein production result is recorded as “failed”.
To “MRMILMFDMPTETAEERKAYRKFRKFLLSEGFIMHQFSVYSKLLLNNTANNAMIGRLKVNNPKKGNITLLTVTEKQFARMVYLHGERNTSVANSDSRLVFLGDSYDQDLEHHHHHH” belongs “failed”; to “MVNFAVWLDGVILKIDLTDSLYKIYKGDQISLPITYEVNDDWIKVYDRIREANLAILSPYDEITTKAILERINLKPTYVIANRGKTKPSREPYRILIEVTGWDPLQVVTLASSPLDLLSARFFDSRIKVICVKRYQDCSKYSPFLYSENLDDAISSLKRLKIIR”, “failed”.
As for “SDCDIEGKDGKQYESVLMVSIDQLLDSMKEIGSNCLNNEFNFFKRHICDANKEGMFLFRAARKLRQFLKMNSTGDFDLHLLKVSEGTTILLNCTGQVKGRKPAALGEAQPTKSLEENKSLKEQKKLNDLCFLKRLLQEIKTCWNKILMGTKEH”, the entry is “not failed”.
To “MVISLVIVAVTATEIFEIVELPFEKTLSAISVGSLFNFSVAVVSKSGYLGVFGLMALESTFIPVPSEVILPLSGYLVYIHTFTFAAIIADAIVASMVGSFIDYYLGLYIGRPIIVKILGFFYVKEDSLVKAENWIDRWGASSVFFARFIPGIRSLISIPAGMLKMKVWVFALMTFLGSVIWSTILVYIGFKAGPYWSSAVHSFSVILDQIIIDAIFAACLAYIGYFIYLKIKTRTKPSY” belongs “failed”.
As for “IDTVAPDMRIHGFLNAQEFTLYLDTSGEALFKRGLRQTQGEAPLRENLAAGILALTGWQPGTPLLDPMCGSGTLLLEAAQIACRIAPGSGRQFAFEQLKLFDARSWKKLKQTATERQHERTFQSIYGSDLYGSALAHTRNNLAAAGLAECVTLKQANVLEISAPAETGILVSNPPYGVRIGDHQMLAEFYPRLGDVLKQRFSGWRAFLLTADPLLAKSIRLTPSRRTPLFNGALECRLLEYRLVAGSMRREKQPSSESSTNQPIT”, the protein production result is recorded as “failed”.
As for “QYCWQHRFPTGYFSICDRYMNGTCPEGNSCKFAHGNAELHEWEERRDALKMKLNKA”, the protein production result is “not failed”.
“MHAFPLTLDNRLAEALPLWRNLARTDRAPRRNIDLADWKADWRELIAALDRFSRSHGYRQPFAAQGHAALENAWAWGQAAENASTLLLKAIDRGLAGAELRSIYLETAALWLDYSRLLGAARDSLREQGEVDFETAPALAPRTGQYPFALQLLAMGVLLDAQELIPALVEEVLQFDTDRLLDYLGAAALGLTSASEETFHPRPFGQLRAFFEEADGSDAQALAPYLQSQYREFFQLSPKAQKKTRRLTGPYAWGWWAMEVSALGVLYGWDDGVLRASPHYLGDLVDYARARGDA”: the protein production entry is listed as “not failed”.
As for “MSPDLIPHQKSLSPSYLVFCDVDETLIRCKSGPEFLRHYFEFRHGAEGARRTEELLADLYARLARGLPRDEANREYHRAWRRCPVDEVEDRARHWYRERSRAADFYITATVDALRRHRAEGGAVALVSGSFPPLLPLVAEEVGAQYVLGARLERCGRVLTGELLGLPAIGDGKRVLARELLARHPHIDPADCYAYGDHPSDLPMLHMVGHATLVTPDGTHAPVKPAALT”, the entry is “failed”; as for “MGNNSESKGSASDSKGAETFTYKAENGNVKIPKHPKRVVVMADGYYGYFKTLGINVVGAPENVFKNPYYKGKTNGVENIGDGTSVEKVIDLNPDLIIVWTTQGADIKKLEKIAPTVAVKYDKLDNIEQLKEFAKMTGTEDKAEKWLAKWDKKVAAAKTKIKKAVGDKTISIMQTNGKDIYVFGKDFGRGGSIIYKDLGLQATKLTKEKAIDQGPGYTSISLEKLPDFAGDYIFAGPWQSGGDDGGVFESSIWKNLNAVKNGHVYKMDPIGFYFTDPISLEGQLEFITESLTKLEHHHHHH”, “not failed”.
